# Experimental data from patent US12366576B2, “Compositions, assays, and methods for direct modulation of fatty acid metabolism” (Dana-Farber Cancer Institute, Inc., priority 2016, dated 2025).
# Bridge positions count the residues as written; N and C are the ends. Square brackets hold non-standard residues; d marks the D form. Ends that are not written are not given here. S5 = C=CCCC[C@](C)(N)C(=O)O
# Biological target: T1, VLCAD (Mus musculus, UniProt P50544)
# T1 construct: As for native VLCAD from MEF lysates; endogenous in cells; host or cells: SV-40-transformed wild-type mouse embryonic fibroblasts (lysate)
# T1 sequence (P50544 42-656): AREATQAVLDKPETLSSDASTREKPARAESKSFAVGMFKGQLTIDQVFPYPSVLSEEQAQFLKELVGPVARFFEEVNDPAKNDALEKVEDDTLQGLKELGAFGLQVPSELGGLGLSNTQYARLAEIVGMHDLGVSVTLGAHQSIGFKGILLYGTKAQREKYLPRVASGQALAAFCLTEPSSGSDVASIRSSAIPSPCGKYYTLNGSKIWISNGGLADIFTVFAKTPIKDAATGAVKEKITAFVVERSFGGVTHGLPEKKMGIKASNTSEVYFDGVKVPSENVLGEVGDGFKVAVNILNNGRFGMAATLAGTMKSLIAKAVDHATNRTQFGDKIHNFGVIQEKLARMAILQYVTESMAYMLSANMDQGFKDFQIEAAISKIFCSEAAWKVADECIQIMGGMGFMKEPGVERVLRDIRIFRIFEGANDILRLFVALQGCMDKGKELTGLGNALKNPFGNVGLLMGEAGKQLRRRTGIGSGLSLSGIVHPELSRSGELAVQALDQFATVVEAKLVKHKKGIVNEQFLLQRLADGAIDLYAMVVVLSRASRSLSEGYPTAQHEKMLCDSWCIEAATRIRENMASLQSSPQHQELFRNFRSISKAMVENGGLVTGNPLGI
# Experiment: Biotinylated SAHB streptavidin pulldown from MEF lysates with MS-based protein identification
# Assay type: binding
# Details: wild-type MEF lysates; three biological replicates; thresholds fold change >8 and p<0.005 versus vehicle
# Procedure: An exploratory proteomics analysis was conducted to identify proteins that interact with the MCL-1 BH3 domain helix. An extensive library of MCL-1 stapled BH3 peptides (FIG. 2) was generated to both identify novel protein interactors by mass spectrometry and then deploy the stapled peptide constructs as novel probes to dissect and pharmacologically modulate the identified protein interactors and associated signaling pathways. As an example, an N-terminally biotinylated stapled peptide designed based on the sequence of MCL-1's BH3 domain (Btn-MCL-1 SAHBD), or vehicle, was incubated with wild-type mouse embryonic fibroblast (MEF) lysates, followed by high stringency streptavidin capture. To validate the proteomics workflow and ensure that Btn-MCL-1 SAHBD could, in fact, engage protein interactors in a lysate, eluates were first run on a gel for anti-MCL-1 Western analysis. […]
# Wild-type MEFs were trypsinized, washed once with cold PBS, and lysed on ice with NP-40 lysis buffer (50 mM Tris, pH 7.4, 150 mM NaCl, 0.5% (v/v) NP-40, complete protease inhibitor pellet (Roche)) using 1 ml of lysis buffer for every 10 million cells lysed. Cellular debris was pelleted at 14,000 g for 10 min at 4° C., and the supernatant was quantified using the BCA Protein Assay Kit (Thermo Fisher Scientific). […]
substance,measurement,value
"MCL-1 SAHBD: hydrocarbon-stapled peptide mimicking the MCL-1 BH3 domain (Stabilized Alpha-Helix of BCL-2 Domain), SEQ ID NO:19 (RKALETLRRVGDGV[S5]RNH[S5]TAF; staple 15-19)",VLCAD identified by MS in pulldown eluates,repeatedly identified as a high stringency interactor
